For experiment [1], the target named is T1, P167A (Homo sapiens, UniProt P18827).
T1 construct: clone of the alanine scanning library on HEK-293T cells; m17 with one substitution; also called CD138 P167A
T1 sequence (CD138 (SDC1), full length, point mutant, looked up): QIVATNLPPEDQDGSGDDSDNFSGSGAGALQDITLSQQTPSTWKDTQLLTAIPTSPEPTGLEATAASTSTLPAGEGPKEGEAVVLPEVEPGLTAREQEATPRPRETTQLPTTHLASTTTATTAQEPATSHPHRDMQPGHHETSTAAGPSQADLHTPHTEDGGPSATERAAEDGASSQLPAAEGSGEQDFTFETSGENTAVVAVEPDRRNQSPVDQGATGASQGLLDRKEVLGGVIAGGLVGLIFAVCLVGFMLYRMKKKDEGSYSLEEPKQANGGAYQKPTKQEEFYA
The experiment can be described thus: alanine scan: flow cytometry on HEK-293T cells expressing the mutant clone, 4320 Fab 0.50 ug/mL, normalised to WT CD138; Range %WT Binding 46; Normalized 4320 vs. BB4 50.9. The protocol: (§1) Serial dilutions of each MAb were tested for immunoreactivity against cells expressing target protein (WT) or vector alone. Validation of target expression and optimization of detection and binding of anti-CD138 antibodies both by flow cytometry was completed in replicate (N=4). The optimal screening concentration for each MAb was determined based on the raw signal values and signal-to-background calculations specifically optimized for each test article. Optimized parameters included the use of 10% goat serum as blocking reagent. Primary antibody staining was for 60 minutes at 25° C. Wash buffer include phosphate buffered saline (divalent metal ion free), pH 7.4. […] Secondary antibodies were diluted 1:400 and incubated for 30 minutes at 25° C.
(§2) Library screens of very-high-affinity mAbs can fail to yield critical residues for antibody binding due to deficiencies of such an assay to detect and differentiate critical vs. less critical binding based on affinity and quantification of cell binding. One common approach in the literature is the use of monovalent antibody derived fragments such as Fab usually weakens binding sufficiently to allow identification of critical residues for binding. […] Binding of each test Ab to each mutant clone in the alanine scanning library was determined, in duplicate, and likewise evaluated by flow cytometry.

The target in experiment [2] is T2, T188A (Homo sapiens, UniProt P18827).
T2 construct: clone of the alanine scanning library on HEK-293T cells; m17 with one substitution; also called CD138 T188A
T2 sequence (CD138 (SDC1), full length, point mutant, looked up): T1 sequence (CD138 (SDC1), full length, point mutant, looked up) with A145P, T166A
Put plainly: alanine scan: flow cytometry on HEK-293T cells expressing the mutant clone, 4320 Fab 0.50 ug/mL, normalised to WT CD138; Range %WT Binding 29; Normalized 4320 vs. BB4 59.8. The protocol: as §1, §2
In general terms: A flow cytometer gives signals particle by particle.

The target of experiment [3] is T3, D210A (Homo sapiens, UniProt P18827).
T3 construct: clone of the alanine scanning library on HEK-293T cells; m17 with one substitution; also called CD138 D210A
T3 sequence (CD138 (SDC1), full length, point mutant, looked up): T1 sequence (CD138 (SDC1), full length, point mutant, looked up) with A145P, D188A
Put plainly: alanine scan: flow cytometry on HEK-293T cells expressing the mutant clone, 4320 Fab 0.50 ug/mL, normalised to WT CD138; Range %WT Binding 15; Normalized 4320 vs. BB4 56.7. As to the method:
as §1, §2

The target in experiment [4] is T4, L114A (Homo sapiens, UniProt P18827).
T4 construct: clone of the alanine scanning library on HEK-293T cells; m17 with one substitution; also called CD138 L114A
T4 sequence (CD138 (SDC1), full length, point mutant, looked up): T1 sequence (CD138 (SDC1), full length, point mutant, looked up) with L92A, A145P
The experiment can be described thus: alanine scan: flow cytometry on HEK-293T cells expressing the mutant clone, 4320 Fab 0.50 ug/mL, normalised to WT CD138; Range %WT Binding 15; Normalized 4320 vs. BB4 30.8. As to the method: as §1, §2

Experiment [5] addresses T5, R117A (Homo sapiens, UniProt P18827).
T5 construct: clone of the alanine scanning library on HEK-293T cells; m17 with one substitution; also called CD138 R117A
T5 sequence (CD138 (SDC1), full length, point mutant, looked up): T1 sequence (CD138 (SDC1), full length, point mutant, looked up) with R95A, A145P
The experiment can be described thus: alanine scan: flow cytometry on HEK-293T cells expressing the mutant clone, 4320 Fab 0.50 ug/mL, normalised to WT CD138; Range %WT Binding 13; Normalized 4320 vs. BB4 14.8. As to the method:
as §1, §2

Substitutions are numbered along the chain they refer to.

B1: Fab fragment of mAb 4320 (Fab, V domains shown)
VH: QVQLVQSGAEVKKPGASVKVSCKASGYSFSSYYMHWVRQAPGQGLEWMGTIHPSDSTTNYNQKFQGRVTMTVDTSTRTAYMELSSLRSEDTAVYYCANFVYWGQGTTVTVSS
VL: DIVMTQTPLSLSVTPGQPASISCKSSKSLLYKDGKTYLNWFLQKPGQSPQLLIYVVSTRASGVPDRFSGSGSGTDFTLKISRVEAEDVGVYYCQQLVEYPYTFGQGTKLEIKR
modifications: N-terminal Q1 observed as pyroglutamic acid (PCA) in the 138-2-5 complex
notes: In the crystal structures heavy chain residues 1-213 were traced; also called Fab4320
With B1, the “Mean %WT Binding” value in experiment [1] worked out at 56.4 %WT; in experiment [2] it was 57.4 %WT; in experiment [3], 42.7 %WT; in experiment [4], 36.2 %WT; in experiment [5], 14.4 %WT.

The values are drawn from US20230348614A1 (VISTERRA, published 2023).
